Data taken from paper PMC9482650, “Quantitative fragmentomics allow affinity mapping of interactomes” (Nature Communications, 2022).

T1: MPP2, Q14168
T1 sequence (Q14168 180-250, limits assumed, looked up): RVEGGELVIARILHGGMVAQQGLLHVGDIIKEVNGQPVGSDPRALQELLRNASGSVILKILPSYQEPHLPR

T2: DFNB31_1, Q9P202
T2 sequence (Q9P202 135-233, limits assumed, looked up): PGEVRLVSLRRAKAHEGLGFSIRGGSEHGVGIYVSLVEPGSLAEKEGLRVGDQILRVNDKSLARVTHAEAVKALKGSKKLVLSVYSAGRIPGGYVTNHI

T3: APBA2_1, Q99767
T3 sequence (Q99767 563-664, limits assumed, looked up): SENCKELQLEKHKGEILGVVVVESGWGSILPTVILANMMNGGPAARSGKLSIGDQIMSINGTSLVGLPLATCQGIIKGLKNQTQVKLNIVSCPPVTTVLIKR

T4: MPP6, Q9NZW5
T4 sequence (Q9NZW5 125-219, limits assumed, looked up): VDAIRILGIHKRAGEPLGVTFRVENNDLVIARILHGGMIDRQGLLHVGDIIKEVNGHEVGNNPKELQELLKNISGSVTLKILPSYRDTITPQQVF

T5: SNTB1, Q13884
T5 sequence (Q13884 107-205, limits assumed, looked up): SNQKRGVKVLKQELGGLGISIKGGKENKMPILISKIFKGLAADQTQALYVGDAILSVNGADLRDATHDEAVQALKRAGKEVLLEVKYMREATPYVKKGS

T6: DLG3_3, Q92796
T6 sequence (Q92796 374-475, limits assumed, looked up): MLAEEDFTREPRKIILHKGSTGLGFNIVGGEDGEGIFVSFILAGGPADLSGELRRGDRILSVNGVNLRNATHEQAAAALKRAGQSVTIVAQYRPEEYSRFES

T7: GRIP1_7, Q9Y3R0
T7 sequence (Q9Y3R0 999-1096, limits assumed, looked up): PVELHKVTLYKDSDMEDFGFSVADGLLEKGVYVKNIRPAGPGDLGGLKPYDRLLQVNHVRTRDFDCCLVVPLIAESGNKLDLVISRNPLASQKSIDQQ

T8: APBA2_2, Q99767
T8 sequence (Q99767 654-744, limits assumed, looked up): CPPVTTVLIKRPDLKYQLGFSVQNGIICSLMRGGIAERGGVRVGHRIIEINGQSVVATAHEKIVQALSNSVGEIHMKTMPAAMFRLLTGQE

T9: GRIP1_3, Q9Y3R0
T9 sequence (Q9Y3R0 247-346, limits assumed, looked up): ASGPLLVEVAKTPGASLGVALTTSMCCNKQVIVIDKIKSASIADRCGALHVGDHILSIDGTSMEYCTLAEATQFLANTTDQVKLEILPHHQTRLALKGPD

T10: LNX2_3, Q8N448
T10 sequence (Q8N448 463-564, limits assumed, looked up): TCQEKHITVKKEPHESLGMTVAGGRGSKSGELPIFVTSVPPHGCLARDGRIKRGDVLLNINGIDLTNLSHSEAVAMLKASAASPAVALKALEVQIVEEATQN

T11: GRIP1_2, Q9Y3R0
T11 sequence (Q9Y3R0 145-248, limits assumed, looked up): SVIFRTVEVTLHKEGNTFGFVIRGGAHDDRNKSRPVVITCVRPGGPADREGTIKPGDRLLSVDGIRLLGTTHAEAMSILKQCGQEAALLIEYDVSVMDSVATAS

T12: NHERF3_4, Q5T2W1
T12 sequence (Q5T2W1 373-468, limits assumed, looked up): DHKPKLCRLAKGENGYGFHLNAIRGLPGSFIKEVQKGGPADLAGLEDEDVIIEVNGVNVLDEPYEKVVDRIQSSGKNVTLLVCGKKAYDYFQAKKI

T13: ARHGEF11, O15085
T13 sequence (O15085 42-136, limits assumed, looked up): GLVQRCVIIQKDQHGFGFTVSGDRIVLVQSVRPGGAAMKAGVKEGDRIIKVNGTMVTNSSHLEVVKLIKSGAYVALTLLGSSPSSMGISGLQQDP


Molecular target: LNX1_3, Q8TBB1
Sequence (Q8TBB1 500-596): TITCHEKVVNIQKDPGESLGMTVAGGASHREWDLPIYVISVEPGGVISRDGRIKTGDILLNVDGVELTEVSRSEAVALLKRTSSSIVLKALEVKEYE
Experiment: holdup assay
Parameters: key: below the threshold = too weak to quantify, mostly under pKd 3.1 to 4
Details: plain residues with an end cap or a label only (N-terminal biotin on a linker: ado-ado)

pKd | Binder
below the threshold | ARSAAASNYV [CLDN4, O14493]

Molecular target: T1, MPP2, Q14168
Experiment: holdup assay
Parameters: key: below the threshold = too weak to quantify, mostly under pKd 3.1 to 4
Details: plain residues with an end cap or a label only (N-terminal biotin on a linker: ado-ado)

pKd | Binder
below the threshold | ARSAAASNYV [CLDN4, O14493]

Molecular target: GIPC2, Q8TF65
Sequence (Q8TF65 112-203): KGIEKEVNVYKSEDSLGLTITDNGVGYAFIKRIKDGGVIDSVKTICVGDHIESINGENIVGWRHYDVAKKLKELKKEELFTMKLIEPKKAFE
Experiment: holdup assay
Parameters: key: below the threshold = too weak to quantify, mostly under pKd 3.1 to 4
Details: plain residues with an end cap or a label only (N-terminal biotin on a linker: ado-ado)

pKd | Binder
below the threshold | ARSAAASNYV [CLDN4, O14493]

Molecular target: T2, DFNB31_1, Q9P202
Experiment: holdup assay
Parameters: key: below the threshold = too weak to quantify, mostly under pKd 3.1 to 4
Details: plain residues with an end cap or a label only (N-terminal biotin on a linker: ado-ado)

pKd | Binder
below the threshold | ARSAAASNYV [CLDN4, O14493]

Molecular target: T3, APBA2_1, Q99767
Experiment: holdup assay
Parameters: key: below the threshold = too weak to quantify, mostly under pKd 3.1 to 4
Details: plain residues with an end cap or a label only (N-terminal biotin on a linker: ado-ado)

pKd | Binder
below the threshold | ARSAAASNYV [CLDN4, O14493]

Molecular target: T4, MPP6, Q9NZW5
Experiment: holdup assay
Parameters: key: below the threshold = too weak to quantify, mostly under pKd 3.1 to 4
Details: plain residues with an end cap or a label only (N-terminal biotin on a linker: ado-ado)

pKd | Binder
below the threshold | ARSAAASNYV [CLDN4, O14493]

Molecular target: GRID2IP_1, A4D2P6
Sequence (A4D2P6 1-87): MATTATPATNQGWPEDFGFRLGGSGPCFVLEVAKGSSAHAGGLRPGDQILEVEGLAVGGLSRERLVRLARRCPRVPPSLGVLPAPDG
Experiment: holdup assay
Parameters: key: below the threshold = too weak to quantify, mostly under pKd 3.1 to 4
Details: plain residues with an end cap or a label only (N-terminal biotin on a linker: ado-ado)

pKd | Binder
below the threshold | ARSAAASNYV [CLDN4, O14493]

Molecular target: T5, SNTB1, Q13884
Experiment: holdup assay
Parameters: key: below the threshold = too weak to quantify, mostly under pKd 3.1 to 4
Details: plain residues with an end cap or a label only (N-terminal biotin on a linker: ado-ado)

pKd | Binder
below the threshold | ARSAAASNYV [CLDN4, O14493]

Molecular target: T6, DLG3_3, Q92796
Experiment: holdup assay
Parameters: key: below the threshold = too weak to quantify, mostly under pKd 3.1 to 4
Details: plain residues with an end cap or a label only (N-terminal biotin on a linker: ado-ado)

pKd | Binder
below the threshold | ARSAAASNYV [CLDN4, O14493]

Molecular target: T7, GRIP1_7, Q9Y3R0
Experiment: holdup assay
Parameters: key: below the threshold = too weak to quantify, mostly under pKd 3.1 to 4
Details: plain residues with an end cap or a label only (N-terminal biotin on a linker: ado-ado)

pKd | Binder
below the threshold | ARSAAASNYV [CLDN4, O14493]

Molecular target: T8, APBA2_2, Q99767
Experiment: holdup assay
Parameters: key: below the threshold = too weak to quantify, mostly under pKd 3.1 to 4
Details: plain residues with an end cap or a label only (N-terminal biotin on a linker: ado-ado)

pKd | Binder
below the threshold | ARSAAASNYV [CLDN4, O14493]

Molecular target: CASK, O14936
Sequence (O14936 487-570): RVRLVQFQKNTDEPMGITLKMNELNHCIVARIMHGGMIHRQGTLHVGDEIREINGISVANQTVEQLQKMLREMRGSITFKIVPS
Experiment: holdup assay
Parameters: key: below the threshold = too weak to quantify, mostly under pKd 3.1 to 4
Details: plain residues with an end cap or a label only (N-terminal biotin on a linker: ado-ado)

pKd | Binder
below the threshold | ARSAAASNYV [CLDN4, O14493]

Molecular target: T9, GRIP1_3, Q9Y3R0
Experiment: holdup assay
Parameters: key: below the threshold = too weak to quantify, mostly under pKd 3.1 to 4
Details: plain residues with an end cap or a label only (N-terminal biotin on a linker: ado-ado)

pKd | Binder
below the threshold | ARSAAASNYV [CLDN4, O14493]

Molecular target: T10, LNX2_3, Q8N448
Experiment: holdup assay
Parameters: key: below the threshold = too weak to quantify, mostly under pKd 3.1 to 4
Details: plain residues with an end cap or a label only (N-terminal biotin on a linker: ado-ado)

pKd | Binder
below the threshold | ARSAAASNYV [CLDN4, O14493]

Molecular target: T11, GRIP1_2, Q9Y3R0
Experiment: holdup assay
Parameters: key: below the threshold = too weak to quantify, mostly under pKd 3.1 to 4
Details: plain residues with an end cap or a label only (N-terminal biotin on a linker: ado-ado)

pKd | Binder
below the threshold | ARSAAASNYV [CLDN4, O14493]

Molecular target: DLG4_1, P78352
Sequence (P78352 62-152): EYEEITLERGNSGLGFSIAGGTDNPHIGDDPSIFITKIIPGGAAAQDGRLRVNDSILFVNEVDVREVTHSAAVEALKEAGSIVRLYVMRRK
Experiment: holdup assay
Parameters: key: below the threshold = too weak to quantify, mostly under pKd 3.1 to 4
Details: plain residues with an end cap or a label only (N-terminal biotin on a linker: ado-ado)

pKd | Binder
3.54 | ARSAAASNYV [CLDN4, O14493]

Molecular target: TJP1_3, Q07157
Sequence (Q07157 416-512): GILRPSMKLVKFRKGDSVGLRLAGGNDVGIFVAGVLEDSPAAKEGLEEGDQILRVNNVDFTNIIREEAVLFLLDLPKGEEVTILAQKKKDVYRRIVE
Experiment: holdup assay
Parameters: key: below the threshold = too weak to quantify, mostly under pKd 3.1 to 4
Details: plain residues with an end cap or a label only (N-terminal biotin on a linker: ado-ado)

pKd | Binder
below the threshold | ARSAAASNYV [CLDN4, O14493]

Molecular target: T12, NHERF3_4, Q5T2W1
Experiment: holdup assay
Parameters: key: below the threshold = too weak to quantify, mostly under pKd 3.1 to 4
Details: plain residues with an end cap or a label only (N-terminal biotin on a linker: ado-ado)

pKd | Binder
below the threshold | ARSAAASNYV [CLDN4, O14493]

Molecular target: DLG1_3, Q12959
Sequence (Q12959 457-571): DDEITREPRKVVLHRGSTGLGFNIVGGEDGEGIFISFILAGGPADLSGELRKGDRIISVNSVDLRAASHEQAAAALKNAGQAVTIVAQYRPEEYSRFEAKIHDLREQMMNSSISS
Experiment: holdup assay
Parameters: key: below the threshold = too weak to quantify, mostly under pKd 3.1 to 4
Details: plain residues with an end cap or a label only (N-terminal biotin on a linker: ado-ado)

pKd | Binder
below the threshold | ARSAAASNYV [CLDN4, O14493]

Molecular target: MAST2, Q6P0Q8
Sequence (Q6P0Q8 1099-1202): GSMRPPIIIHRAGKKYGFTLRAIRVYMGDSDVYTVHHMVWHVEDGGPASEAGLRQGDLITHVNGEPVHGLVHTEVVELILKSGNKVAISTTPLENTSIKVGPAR
Experiment: holdup assay
Parameters: key: below the threshold = too weak to quantify, mostly under pKd 3.1 to 4
Details: plain residues with an end cap or a label only (N-terminal biotin on a linker: ado-ado)

pKd | Binder
below the threshold | ARSAAASNYV [CLDN4, O14493]

Molecular target: NOS1, P29475
Sequence (P29475 9-101): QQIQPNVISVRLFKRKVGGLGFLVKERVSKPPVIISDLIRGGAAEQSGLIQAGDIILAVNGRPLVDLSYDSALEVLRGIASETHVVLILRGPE
Experiment: holdup assay
Parameters: key: below the threshold = too weak to quantify, mostly under pKd 3.1 to 4
Details: plain residues with an end cap or a label only (N-terminal biotin on a linker: ado-ado)

pKd | Binder
3.82 | ARSAAASNYV [CLDN4, O14493]

Molecular target: GORASP2, Q9H8Y8
Experiment: holdup assay
Parameters: key: below the threshold = too weak to quantify, mostly under pKd 3.1 to 4
Details: plain residues with an end cap or a label only (N-terminal biotin on a linker: ado-ado)

pKd | Binder
4.01 | ARSAAASNYV [CLDN4, O14493]

Molecular target: IL16_4, Q14005
Sequence (Q14005 1229-1329): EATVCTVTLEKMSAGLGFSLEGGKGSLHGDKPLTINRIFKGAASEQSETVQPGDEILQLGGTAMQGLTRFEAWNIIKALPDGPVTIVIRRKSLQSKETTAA
Experiment: holdup assay
Parameters: key: below the threshold = too weak to quantify, mostly under pKd 3.1 to 4
Details: plain residues with an end cap or a label only (N-terminal biotin on a linker: ado-ado)

pKd | Binder
below the threshold | ARSAAASNYV [CLDN4, O14493]

Molecular target: T13, ARHGEF11, O15085
Experiment: holdup assay
Parameters: key: below the threshold = too weak to quantify, mostly under pKd 3.1 to 4
Details: plain residues with an end cap or a label only (N-terminal biotin on a linker: ado-ado)

pKd | Binder
3.8 | ARSAAASNYV [CLDN4, O14493]
